Tests used:
[1] = target: T1, extracellular domain of Tfr2 (Tfr2-ECD), recombinant His-MBP-c3-Tfr2-ECD (murine, UniProt Q9JKX3 103-798); assay: SPR
T1 sequence: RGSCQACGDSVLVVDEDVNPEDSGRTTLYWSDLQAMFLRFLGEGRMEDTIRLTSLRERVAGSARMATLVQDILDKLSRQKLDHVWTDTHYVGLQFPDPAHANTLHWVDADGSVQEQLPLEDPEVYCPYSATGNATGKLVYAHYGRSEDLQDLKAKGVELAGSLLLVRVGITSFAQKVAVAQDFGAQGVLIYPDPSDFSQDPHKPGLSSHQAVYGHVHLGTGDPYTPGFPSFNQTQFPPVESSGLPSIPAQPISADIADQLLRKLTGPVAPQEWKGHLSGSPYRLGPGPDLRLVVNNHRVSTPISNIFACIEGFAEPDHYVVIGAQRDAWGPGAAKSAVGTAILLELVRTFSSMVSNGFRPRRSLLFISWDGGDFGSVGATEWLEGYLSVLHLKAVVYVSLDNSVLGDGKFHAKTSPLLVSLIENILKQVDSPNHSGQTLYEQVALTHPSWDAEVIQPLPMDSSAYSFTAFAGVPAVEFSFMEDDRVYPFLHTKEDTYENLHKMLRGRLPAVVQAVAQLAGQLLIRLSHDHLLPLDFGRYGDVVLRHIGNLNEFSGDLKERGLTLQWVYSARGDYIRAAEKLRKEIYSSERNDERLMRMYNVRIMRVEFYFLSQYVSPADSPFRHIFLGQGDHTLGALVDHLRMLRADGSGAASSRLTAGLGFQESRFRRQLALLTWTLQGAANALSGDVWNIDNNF

[2] = target: T1, extracellular domain of Tfr2 …; assay: SPR; remark: listed apart in the source

Binder | Kd [1] [nM] | fold binding level against holo-Tf [2] [fold]
BMP-4 (ligand) SPKHHSQRARKKNKNCRRHSLYVDFSDVGWNDWIVAPPGYQAFYCHGDCPFPLADHLNSTNHAIVQTLVNSVNSSIPKACCVPTELSAISMLYLDEYDKVVLKNYQEMVVEGCGCR | 409 ± 39 | 
BMP-2 (ligand) QAKHKQRKRLKSSCKRHPLYVDFSDVGWNDWIVAPPGYHAFYCHGECPFPLADHLNSTNHAIVQTLVNSVNSKIPKACCVPTELSAISMLYLDENEKVVLKNYQDMVVEGCGCR | 488 ± 37 | > 10

Reference: publication PMC6420074 (Nature metabolism, 2019)
